To fix the notation:
B1: OR4K15 (parent)
chain: GUUAACGGUCAUAGGCCAUGGAAACUAGGAGCACCAUUUCGCUGCCAGUGAAGAAAUGAACAAAGAAAAUCUGGGCCAGGCAGGCAUCAAAAGAAAUAGUCUUGCGCUCAACCAGAAAGUCUGUAAUCAUUUUAAGGGUA

We go through 41 variants from the RNAGym collection of RNA variant scans (doi:10.7554/elife.90254).

The variants in this data set derive from B1. As to the kind of experiment: self-cleavage, relative activity (ratio to wild type); higher = more cleavage; in vitro, sequencing; the parent is a self-cleaving ribozyme.
With GUUAACGGUCAUAGGCCAUGGAAACUAGGAGCACCUUUUCGCUGCCAGUGAAGAAAUGAACAAAGAAAAUCUGGGCCAGGCAGGCAUCAAGAGAAAUAGUCUUGCGCUCAACCAGAAAGUCUGUAAUCAUUUUAAGGGUA [A36U A91G], the self-cleavage came to 1.42.
Consider GUUAACGGCCAUAGGCCAUGGAAACUAGGAGCACCAUUUCGCUGCCAGUGAAGAAAUGAACAAAGAAAAUCUGGGCCAGGCAGGCAUCAAAAGAAAUAGUCUUGCGCUCAACCAGGAAGUCUGUAAUCAUUUUAAGGGUA [U9C A116G], for which the self-cleavage worked out at 0.49.
The value for GUUAACGGUCAUAGGCCAUGGAAACUAGGAGCACCAUUUCGCUGCCAGUGAAGAAAUGAACAAAGAAAAUCGGGGCCAGGCAGGCAUCAAAAGAAAUAGUCUUGCGCUCAACCAGAAAGUCUGUAAUCAUUUUAAGGGUA [U72G] was 0.12.
The value for GUUAACGGUCAUAGGGCAUGGAAACUAGGAGCACCAUUUCGCUGCCAGUGAAGAAAUGAACAAAGGAAAUCUGGGCCAGGCAGGCAUCAAAAGAAAUAGUCUUGCGCUCAACCAGAAAGUCUGUAAUCAUUUUAAGGGUA [C16G A66G] was 1.14; that for GUUUACGGUCAUAGGCCAUGGAAACUAGGAGCACCAUUUCGCUGCCAGUGAAGAAAUGAACAAAGAAAAUCAGGGCCAGGCAGGCAUCAAAAGAAAUAGUCUUGCGCUCAACCAGAAAGUCUGUAAUCAUUUUAAGGGUA [A4U U72A] was 0.28; that for GUUAACGGUCAUAGGCCAUGGAAACUAGGUGCACCAUUUCGCUGCCAGUGAAGAAGUGAACAAAGAAAAUCUGGGCCAGGCAGGCAUCAAAAGAAAUAGUCUUGCGCUCAACCAGAAAGUCUGUAAUCAUUUUAAGGGUA [A30U A56G] was 0.82.
The value for GUUAACGGUCAUAGGCCAUGGAAACUAGGAGCACCAUUUCGCUGCCAGUGAAGAAAUGAACAAAGAAAAUCUGGGCCAGGCAGGCAUCAAAAGAAAUAGUCAUGCGCUCAACCAGAGAGUCUGUAAUCAUUUUAAGGGUA [U102A A117G] was 1.12.
In the case of GUUAGCGGUCAUAGGCCAUGGAAACUAGGAGCACCAUUUCGCUGCCAGUGAAGAAAUGAACAAAGAAAAUCUGGGCCAGGCAGGCAUCAAAAGAAAUAGUCUUGCGCUCAACCAGAACGUCUGUAAUCAUUUUAAGGGUA [A5G A118C], the self-cleavage came to 1.
Turning to GUUAACGGUCAUAGGCCAUGGAAACUAGGAGCACCAUUCCGCUGCCAGUGAAGAAAUGAACAAAGAAAAUCUGGGCCAGGCAGGCAUCAAAAGAAAUAGUCUUGCGCUCAACCAGAAAGUCUGUAAUCAUUCUAAGGGUA [U39C U132C], the self-cleavage turned out to be 1.12.
The value for GUUAACGGUCAUAGGCCAUGGAAACUAGGAGCUCCAUUUCGCUGCCAGUGAAGAAAUGAACAAAGUAAAUCUGGGCCAGGCAGGCAUCAAAAGAAAUAGUCUUGCGCUCAACCAGAAAGUCUGUAAUCAUUUUAAGGGUA [A33U A66U] was 1.62; that for GUUAACGGUCAUAGGCCAUGGAAGCUAGGAGCACCAUUUCGCUGCCAGUGAAGAAAUGAACGAAGAAAAUCUGGGCCAGGCAGGCAUCAAAAGAAAUAGUCUUGCGCUCAACCAGAAAGUCUGUAAUCAUUUUAAGGGUA [A24G A62G] was 1.27.
The value for GUUAACGGUCAUAGGCCAUGGAAACUAGGAGCACCAUUUCGCUGCCAGUGAAGAAAUGAACAAUGAAAAUCUGGGCCAGGCAGGCAUCAAAAGAAAUAGUCUUGCGCUCAACCAGAAGGUCUGUAAUCAUUUUAAGGGUA [A64U A118G] was 1.42; that for GUUAACGGUCAUAGGCCAUGGAAACUAGGAGCACCUUUUCGCAGCCAGUGAAGAAAUGAACAAAGAAAAUCUGGGCCAGGCAGGCAUCAAAAGAAAUAGUCUUGCGCUCAACCAGAAAGUCUGUAAUCAUUUUAAGGGUA [A36U U43A] was 1.85.
The value for GUUAACGGUCAUAGGCCAUGGAAACUAGGAGCACCAUUUCGCUGCCAGUGAAGAAAUGAACAAAGAAAAUCUGGGCCAGGCAGGCAUCAAAAGAAAUAGUCUUGCGCUCAACCAGAAAGUCCGUAAUCAUUUCAAGGGUA [U122C U133C] was 2.05.
For GUUAACGGUCAUAGGCCAUGGAAACUAGGAGCACCAUUUCGCUGCCAGUGAAGAAAUGAACGAAGAAAAUCUGGGCCAGGCAGGCAUCGAAAGAAAUAGUCUUGCGCUCAACCAGAAAGUCUGUAAUCAUUUUAAGGGUA [A62G A89G], the self-cleavage came out at 0.94.
The value for GUUAACGGUCAUAGGCCAUGGAAACUAGGAGCACCAUUUCGCUGCCAGUGAAGAAAUGAACAAAGAAAAUCUGGGCCAGGCAGGCAUCAAAAGAAAUAGUCUUGCGCUCAAUCAGAAGGUCUGUAAUCAUUUUAAGGGUA [C112U A118G] was 0.
The value for GUUAACGGUCAUAGGCCAUGGAAACUAGGAGCACCAUUUCGCUGCCAGUGAAGAAAUGAACAAAGAAAAUCUGGGCCAGGCAGGCAUCAAAAGAAGUAGUCUUGCGCUCAACCAGAAAGACUGUAAUCAUUUUAAGGGUA [A96G U120A] was 2.74.
The value for GUUAACGGUCAUAGGCCAUGGAAACUAGGAGCACCAUUUCGCUGCCAGUGAAGAAAUGAACAAAGAGAAUCUGGGCCAGGCAGGCAUCAGAAGAAAUAGUCUUGCGCUCAACCAGAAAGUCUGUAAUCAUUUUAAGGGUA [A67G A90G] was 0.96.
On to GUUAACGGUCAUAGGCCAUGGAAACUUGGAGCACCAUUUCGCUGCCAGUGAAGAAAUGGACAAAGAAAAUCUGGGCCAGGCAGGCAUCAAAAGAAAUAGUCUUGCGCUCAACCAGAAAGUCUGUAAUCAUUUUAAGGGUA [A27U A59G], for which the self-cleavage was found to be 0.92.
Regarding GUUAACGGUCAUAGGCCAUGGAAACUAGGAGCACCAUUUCGCUGCCAGUGAAGAAAUGAACAAAGAAAAUCCGGGCCAGGCAGGCAUCAAAAGAAAUAGUCUUGCGCUCAACCAGAAAGUCUGCAAUCAUUUUAAGGGUA [U72C U124C], the self-cleavage amounted to 0.17.
The value for GUUAACGGUCAUAGGCCAUGGAAACUAGGAGCACCAUUUCGCUGCCAGUGAAGAAAUGAACAAAGAAAAUCUGGGCCAGGCAGGCAUCAAAAGAAAUAGUCUUGCGCUCAACCAGAAAGUCUGUAAUCAUUUUAAGGGUU [A140U] was 1.12.
The value for GUUAACGGUCAUAGGCCAUGGAAACUAGGAGCACCAUUUCGCUGCCAGUGAAGAAAUGAACAAAGAAAAUCUGGGCCAGGCAGGCAUCAGAAGAAUUAGUCUUGCGCUCAACCAGAAAGUCUGUAAUCAUUUUAAGGGUA [A90G A96U] was 1.79; that for GUUAACGGUCAUAGGCCAUGGAAACUAGGAGCACCAAUUCGCUGCCAGUGAAGAAAUGAACAAAGAAAAUCCGGGCCAGGCAGGCAUCAAAAGAAAUAGUCUUGCGCUCAACCAGAAAGUCUGUAAUCAUUUUAAGGGUA [U37A U72C] was 0.37; that for GAUAACGGUCAUAGGCCAUGGAAACUAGGAGCACCAUUUCGCUGCCAGUGAAGAAAUGAACAAAAAAAAUCUGGGCCAGGCAGGCAUCAAAAGAAAUAGUCUUGCGCUCAACCAGAAAGUCUGUAAUCAUUUUAAGGGUA [U2A G65A] was 0.89.
Take GUUAACGGUCAUAGGCCAUGGAAACUAGGAGCACCAUUUCGCUGCCAGUGAAGAAAUGAACAAAGAAAAUCUGGGCCAGGCAGGCAUCAAAAGAAAUAGUCUUGCGCUCAACCAGAAAGUCCGUAUUCAUUUUAAGGGUA [U122C A126U]: the self-cleavage amounted to 1.12.
Take GUUAACGGUCAUAGGCCAUGGAAACUAGGAGCACCAUUUCGCUGCCAGUGAAGAAAUGAACAAAGAAAAUCUGGGCCAGGCUGGCAUCAAAAGACAUAGUCUUGCGCUCAACCAGAAAGUCUGUAAUCAUUUUAAGGGUA [A82U A95C]: the self-cleavage came to 0.12.
On to GUUAACGGUCAUAGGCCAUGGAAACUAUGAGCACCAUUUCGCUGCCGGUGAAGAAAUGAACAAAGAAAAUCUGGGCCAGGCAGGCAUCAAAAGAAAUAGUCUUGCGCUCAACCAGAAAGUCUGUAAUCAUUUUAAGGGUA [G28U A47G], for which the self-cleavage was determined as 2.28.
The value for GUUAACGGUCAUAGGCCAUGGAAACUAGGAGCACCAUUUCGCUGCCAGUGAAGAAAUGAACAAAGAAAAUCUGGGCCAGGCGGGCAUCAAAAGAAAUAGUCUUGCGCACAACCAGAAAGUCUGUAAUCAUUUUAAGGGUA [A82G U108A] was 0.04.
On to GUUAACGGUCAUAGGCCAUGGAAACUAGGAGCACCACUUCGCUGCCAGUGAAGAAAUGAACAAAGAAAACCUGGGCCAGGCAGGCAUCAAAAGAAAUAGUCUUGCGCUCAACCAGAAAGUCUGUAAUCAUUUUAAGGGUA [U37C U70C], for which the self-cleavage was determined as 0.2.
Take GUUAACGGUCACAGGCCAUGGAAACUAGGAGCACCAUUUCGCUGCCAGUGAAGAAAUGAACAAAGAAAAUCUGGGCCAGGCAGGCAUCAAAAGAAAUAGUCCUGCGCUCAACCAGAAAGUCUGUAAUCAUUUUAAGGGUA [U12C U102C]: the self-cleavage came to 1.22.
Take GUUAACGGUCAUAGGCCAUGGAAACUUGGAGCACCAUUUCGCUGCCAGUGAAGAAAUGAACAAAGAAAAUCUGGGCCAGGCAGGCAUCAAAAGAAAUAGUCUUGCGCUCAACCAGAAAGUCUGUGAUCAUUUUAAGGGUA [A27U A125G]: the self-cleavage worked out at 0.84.
The value for GUUAACGGUCAUAGGCCAUGGAAACUAGGAGCACCAUUUCGCUGCCAGUGAAGAAAUGAACAAAGAAAAUCUGGGCCAGGCAGGCAUCAAAAGAAAUAGUCUUGCGCUCAACCAGCAAGUCUGUAAUCAUUUUAAGGGUA [A116C] was 0.13; that for GAUAACGGUCAUAGGCCAUGGAAACUAGGAGCACCAUUUCGCUGCCAGUGAAGAAAUGAACAAGGAAAAUCUGGGCCAGGCAGGCAUCAAAAGAAAUAGUCUUGCGCUCAACCAGAAAGUCUGUAAUCAUUUUAAGGGUA [U2A A64G] was 1.24.
The value for GUUAACGGUCAUAGGCCAUGGAAACUAGGAGCACCAUUUCGCUGCCAGUGAAGACAUGUACAAAGAAAAUCUGGGCCAGGCAGGCAUCAAAAGAAAUAGUCUUGCGCUCAACCAGAAAGUCUGUAAUCAUUUUAAGGGUA [A55C A59U] was 1.8; that for GUUAACGGUCAUAGGCCAUGGAAACUAGGAGCACCAUUUCACUGCCAGUGAAGGAAUGAACAAAGAAAAUCUGGGCCAGGCAGGCAUCAAAAGAAAUAGUCUUGCGCUCAACCAGAAAGUCUGUAAUCAUUUUAAGGGUA [G41A A54G] was 1.09; that for GUUAACGGUCAUAGGCCAUGGAAGCUAGGAGCACCAUUUCGCUGCCAGUGAAGAAAUGAACAAAGAAAGUCUGGGCCAGGCAGGCAUCAAAAGAAAUAGUCUUGCGCUCAACCAGAAAGUCUGUAAUCAUUUUAAGGGUA [A24G A69G] was 1.31.
In the case of GUUAACGGUCAUAGGCCAUGGAAACUAGGAGCACCAUUUCGCUGCCAGUGAAGAAAUGAACAAAGAAGAUCUGGGCCAGGCAGGCAUCAAAAGAAAUAGUCUUGCGCUCAACCAGAAAGUCUGUAAUCAUUUCAAGGGUA [A68G U133C], the self-cleavage was found to be 1.87.
The value for GCUAACGGCCAUAGGCCAUGGAAACUAGGAGCACCAUUUCGCUGCCAGUGAAGAAAUGAACAAAGAAAAUCUGGGCCAGGCAGGCAUCAAAAGAAAUAGUCUUGCGCUCAACCAGAAAGUCUGUAAUCAUUUUAAGGGUA [U2C U9C] was 0.83; that for GUUAACGGUCAUAGGCCAUGGAAACUAGGAGCACCAUUUCGCUGCCAGUGAAGAAAUGAACGAAGAAAAUCUGGGCCAGGCAGGCAUCAAAAGAAAUAGUCUUGCGCUCAACCAGAAAGUCUGUAAUCAUUCUAAGGGUA [A62G U132C] was 1.59.
The value for GUUAACGGUCAUAGGCCAUGGAAACUAGGAGCACCAUUUCGCUGCCAGUGAAGAAAUUAACAAAGAAAAUCUGGGCCAGGCAGGCAUCAAAAGAAAUAGUCUUGCGCUCAACCAGAGAGUCUGUAAUCAUUUUAAGGGUA [G58U A117G] was 1.89.
The value for GUUAACGGUCAUAGGCCAUGGAAACUAGGAGCACCAUUUCGCUGCCAGUGAAGAAAUGAACAAAGAAAAUCUGGACCAGGCAGGCAUCAAAAGAAAUAGUCUUGCGCCCAACCAGAAAGUCUGUAAUCAUUUUAAGGGUA [G75A U108C] was 0.03.
